Experimental findings from article PMC3310817, “Liver X Receptors Regulate the Transcriptional Activity of the Glucocorticoid Receptor: Implications for the Carbohydrate Metabolism” are described below.

The target in series [1] is T1, LXRα (recombinant, Active Motif);RXRα (recombinant, Active Motif) (Homo sapiens;Homo sapiens, UniProt Q13133;P19793 1-447;1-462, |). Kind of series: EMSA; GW3965 (enhances binding); EMSA: 10 mM HEPES pH 8.0, 0.1 mM EDTA, 2 mM DTT, 50 mM NaCl, 5 mM MgCl2, 50 mM KCl, 4 mM spermidine, 4% Ficoll, 1 ug poly(dI-dC); preincubation 10 min 4 C, then 15 min room temperature with probe. Conditions: protein: commercial;commercial; tags: ;; copies: 1;1; label: 32P; blunt.

In series [2] the target is T1, LXRα (recombinant, Active Motif);RXRα …. The experiment in a line: EMSA; complex C; EMSA: 10 mM HEPES pH 8.0, 0.1 mM EDTA, 2 mM DTT, 50 mM NaCl, 5 mM MgCl2, 50 mM KCl, 4 mM spermidine, 4% Ficoll, 1 ug poly(dI-dC); preincubation 10 min 4 C, then 15 min room temperature with probe. Conditions: protein: commercial;commercial; tags: ;; copies: 1;1; label: 32P; blunt.

T1 sequence (Q13133 whole entry, chain 1 of 2): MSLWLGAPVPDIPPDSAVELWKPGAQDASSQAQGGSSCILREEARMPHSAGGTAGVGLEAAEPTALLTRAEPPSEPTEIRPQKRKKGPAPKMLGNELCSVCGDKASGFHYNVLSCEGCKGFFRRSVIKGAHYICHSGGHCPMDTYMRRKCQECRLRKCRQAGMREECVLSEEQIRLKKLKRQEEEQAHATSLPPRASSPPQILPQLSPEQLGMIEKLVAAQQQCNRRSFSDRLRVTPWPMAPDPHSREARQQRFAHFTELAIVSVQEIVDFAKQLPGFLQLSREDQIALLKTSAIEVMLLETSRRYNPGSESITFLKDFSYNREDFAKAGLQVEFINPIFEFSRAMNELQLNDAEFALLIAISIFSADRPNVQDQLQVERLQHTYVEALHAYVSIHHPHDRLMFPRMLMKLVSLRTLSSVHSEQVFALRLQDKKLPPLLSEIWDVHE
T1 sequence (P19793 whole entry, chain 2 of 2): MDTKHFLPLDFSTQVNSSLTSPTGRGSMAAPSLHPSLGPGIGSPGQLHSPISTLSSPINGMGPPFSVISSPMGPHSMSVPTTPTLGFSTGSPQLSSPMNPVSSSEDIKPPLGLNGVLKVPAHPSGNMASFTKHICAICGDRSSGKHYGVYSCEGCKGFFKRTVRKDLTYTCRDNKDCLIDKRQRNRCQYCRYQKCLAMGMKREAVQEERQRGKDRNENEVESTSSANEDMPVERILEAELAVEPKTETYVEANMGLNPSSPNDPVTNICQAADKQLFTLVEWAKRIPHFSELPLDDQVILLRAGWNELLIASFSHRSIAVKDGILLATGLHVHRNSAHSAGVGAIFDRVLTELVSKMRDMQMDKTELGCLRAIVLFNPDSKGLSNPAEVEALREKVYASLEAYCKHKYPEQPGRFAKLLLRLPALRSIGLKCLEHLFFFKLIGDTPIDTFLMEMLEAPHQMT

B1: Classic GRE wt (dsDNA)
DNA 1: AGCTGGTACAAACTGTTCTAGCT
DNA 2: AGCTAGAACAGTTTGTACCAGCT
Take B1: the binding result in series [1] was “binds”.

B2: G6Pase GRE wt (dsDNA)
DNA 1: GCACTGTCAAGCAGTGTGCCCAAGTTAATAATT
DNA 2: AATTATTAACTTGGGCACACTGCTTGACAGTGC
For the molecule B2, the binding result in series [2] was “binds”.
